In IntAct's records for PubMed 20133640:

Target: ssph2_salty sspH2 (UniProt P0CE12)
Sequence (P0CE12 whole entry): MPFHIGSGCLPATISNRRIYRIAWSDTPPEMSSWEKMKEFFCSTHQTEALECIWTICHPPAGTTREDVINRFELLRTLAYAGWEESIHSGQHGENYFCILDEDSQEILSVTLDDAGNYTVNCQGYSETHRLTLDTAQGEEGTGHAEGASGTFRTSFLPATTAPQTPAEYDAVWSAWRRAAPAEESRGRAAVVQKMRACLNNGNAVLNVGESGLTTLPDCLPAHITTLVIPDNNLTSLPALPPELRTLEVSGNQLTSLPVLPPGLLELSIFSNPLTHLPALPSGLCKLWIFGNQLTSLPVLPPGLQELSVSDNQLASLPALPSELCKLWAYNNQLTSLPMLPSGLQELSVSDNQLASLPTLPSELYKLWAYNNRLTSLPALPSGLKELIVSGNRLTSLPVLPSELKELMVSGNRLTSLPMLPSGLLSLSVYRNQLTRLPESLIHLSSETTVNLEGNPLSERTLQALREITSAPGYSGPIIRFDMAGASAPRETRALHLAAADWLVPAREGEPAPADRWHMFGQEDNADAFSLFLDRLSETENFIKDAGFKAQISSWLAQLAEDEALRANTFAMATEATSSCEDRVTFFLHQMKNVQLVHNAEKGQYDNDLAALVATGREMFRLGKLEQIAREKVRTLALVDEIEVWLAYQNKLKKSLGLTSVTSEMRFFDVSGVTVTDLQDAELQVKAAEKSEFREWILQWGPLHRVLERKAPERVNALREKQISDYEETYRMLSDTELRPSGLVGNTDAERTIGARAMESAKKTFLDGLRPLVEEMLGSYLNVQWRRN

Ubiquitin-conjugating enzyme E2 D3 (Homo sapiens), P61077 A96D, sequence (P61077 whole entry A96D): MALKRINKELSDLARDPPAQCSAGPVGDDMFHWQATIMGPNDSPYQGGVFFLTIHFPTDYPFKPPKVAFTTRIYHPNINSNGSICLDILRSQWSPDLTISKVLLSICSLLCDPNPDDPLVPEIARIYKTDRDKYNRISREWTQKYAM

Substance: Ubiquitin-conjugating enzyme E2 D3 (Homo sapiens), P61077 A96D
- effect of a mutation on the interaction: decreasing interaction
